What was measured:
murine B7-DC (murine) [1] = target: murine B7-DC (murine) (UniProt Q9WUL5); test: cell-based or functional assay
murine B7-DC (murine) [2] = target: murine B7-DC (murine) (UniProt Q9WUL5); test: flow cytometry on 293T cells transfected with murine B7-DC
murine B7-DC (murine) [3] = target: murine B7-DC (murine) (UniProt Q9WUL5); test: flow cytometry competition on murine DC; preincubation with sHIgM12, staining with PD-1.Ig as competitor read out
murine B7-DC (murine) [4] = target: murine B7-DC (murine) (UniProt Q9WUL5); test: flow cytometry competition on murine bone marrow derived DC; preincubation with PD-1.Ig, staining with sHIgM12 as competitor read out

murine B7-DC (murine), sequence (Q9WUL5 20-247): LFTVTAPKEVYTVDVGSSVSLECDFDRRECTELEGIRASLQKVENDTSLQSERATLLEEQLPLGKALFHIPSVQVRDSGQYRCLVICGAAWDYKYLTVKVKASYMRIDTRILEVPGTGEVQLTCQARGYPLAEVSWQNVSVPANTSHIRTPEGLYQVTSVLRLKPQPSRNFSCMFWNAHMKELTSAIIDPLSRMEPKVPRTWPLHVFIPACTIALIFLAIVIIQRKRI

Row | GFP+, CD11c+ DC recovered from draining lymph nodes after adoptive transfer (murine B7-DC (murine) [1]) [fold] | IL-12 p70 release by DC (ELISA of culture supernatants) (murine B7-DC (murine) [1]) [fold] | ability of lymph node DC to induce an antigen-specific T cell response (murine B7-DC (murine) [1]) [fold] | percentage of cellular metabolism (Alamar Blue) maintained 24 hours after cytokine withdrawal from DC (murine B7-DC (murine) [1]) [%] | percent of transfected cells stained (murine B7-DC (murine) [2]) [%] | PD-1 binding left, percent of the level without sHIgM12 (murine B7-DC (murine) [3]) [%] | sHIgM12 staining left, percent of the level without PD-1 (murine B7-DC (murine) [4]) [%] | Substance
1 | 5 | 3 | 10 | 80 | 97 | 20 |  | sHIgM12 (human monoclonal IgM antibody, pentameric, purified from patient serum)
2 |  |  |  |  |  |  | 50 | PD-1.Ig fusion protein (Fc fusion)

Source: patent US20060002928A1
